Source: the supplement of paper PMC12764529
± gives the half width of the 95% confidence interval.

Assay: folding stability dG unfold from chymotrypsin proteolysis; higher = more stable
Procedure, shortened: (§1)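 Digests were run with trypsin and chymotrypsin at 11 concentrations in threefold dilutions, plus a no-protease condition, on designed mini-proteins in a PA-tagged cDNA display construct. The mini-proteins were under 80 residues, had no cysteine, and were kept only when AlphaFold2 dimer inter-PAE was above 15. After sequencing, Bayesian fitting of the counts gave K50, from which unfolding free energy was derived against a sequence-predicted unfolded-state K50 and a shared folded-state K50, per protease or combined.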

| Sequence | folding stability dG unfold [kcal/mol] |
| --- | --- |
| SAGPKIELEVDPENPNVARAKVIDPANGEEIDEVEVPVTTLPDGTVLVPAKIKYKGSGKTLELPFTVEGSAG [r5_610_TrMRF] | 0.133 ± 0.26 |
| SASSETFEIEVKVKLFFRDPEKGKLVEREFDAIVKVTVNPETGEVKVEVYFKPLGKPVTITLPPGASIESAG [r14_587_TrMRF] | 4.54 ± 0.16 |
| SAGGMQKAIDIAKELGWKILDVDPEKKVVKVKPPDSDVEVTITVDDESTVTITTKNPGSDVVETIPESAGGS [r16_197_JUSTAS] | 1.47 ± 0.056 |
| SAGGSAGGSAGMKYKATIPLPDGTTLTYESEDPEKAIEEITKETGVPKSKITITPIPELESAGGSAGGSAGG [r17_169_JUSTAS] | 0.709 ± 0.096 |
| SSPGKITTYEVTLTLPGPRPMTSTVDPSGVMTATVPDGTKITATIVPGPGTLTITTTFPDGTTSTSTISASA [r9_99_JUSTAS] | 1.21 ± 0.058 |
| SAGGSMVLTLEEESEEGVLRVTELHFYPGEVTVTTRTFEIAPDGSVRSATESTTVIPVPPSALAEASAGGSA [r2_474_JUSTAS] | 2.33 ± 0.038 |
| SAGGSAGGSAGGSGAEELAKKLQEKLEELGLEAEITVEYDEETNELTITITVDGKEYEFSAGGSAGGSAGGS [r4_312_TrROS_Hall] | 1.74 ± 0.063 |
| SMPNTIEEIRFTFTLPDDTPVESEVDPDGKVTGTYPDGLKIEATLEPDSGKLTVKVTFPDGLPAEATIDLSA [r9_99_TrMRF] | 1.78 ± 0.042 |
| SAGGSAGGMKIVVEEVDEEKGYVRIRIEDPETKEEKEIVVKVKTPEEAEALAKKLAEAGYEVETSAGGSAGG [r6_796_TrROS_Hall] | 1.79 ± 0.028 |
| SAGGSAGGSAGKPEVKVEAEVEPYPETDLVVVNVRVYVDGVPVEIPFVVPPSVAEAFLKASAGGSAGGSAGG [r11_700_TrMRF] | 1.26 ± 0.024 |
| SAGGSASMIVKEVKDKVDPAGSVPPDAVIRLETKVDPATGVWTIKVYTEEGKEIGESTVFVKPGILSAGGSA [r15_134_JUSTAS] | 0.629 ± 0.083 |
| SEAEAVTFPVPNPEDGELVADLAVARNPETGEWTVRLEHEDGKTVEVTFPEDEELPVDGLPPGLRATFTGSA [r9_1150_TrMRF] | -0.916 ± 0.7 |
| SAGGSAGGSAAMLNRKPTVYPLPDDTVRLEETVPSPGTKIYKTIKLPPGGLIEEGDVSYPPSAGGSAGGSAG [r3_165_JUSTAS] | -0.367 ± 0.23 |
| SAGGSASPVFVATRISLPGGNASVDTSRYDPSSGTLTITVTLPDGTTTTITLTGPVSEYPADRLLLSAGGSA [r15_596_JUSTAS] | 1.16 ± 0.051 |
| SAGGMTVETTTVTLAAGTTYTVTTPSDSTVEVVDTETGVVRRFDVPASTDFSVTLPADRTYDITVVRRSAGG [r19_78_JUSTAS] | 1.35 ± 0.022 |
| SAGGSMLEKEEGDTLVKTVLQPVPEDLSREVLVTTTTKLLPNGSEVTVTVRSPFTGEPLSSSVVLSSAGGSA [r2_412_JUSTAS] | 0.635 ± 0.13 |
| SAGGSAGGSAGGSKYVVIRVKKSVDELKDALKKAGFKVKIVSVYYDKENKEIYVVVKIESAGGSAGGSAGGS [r4_315_TrROS_Hall] | 4.45 ± 0.14 |
| EVETYPDGTVVTTLPPEVTADIPADEPVNLRTLIFDPDGYLYLSTATRTPDGTVTYTVSITPIPVGPELLLS [r1_394_JUSTAS] | 1.63 ± 0.083 |
| SAGMVIVIDKKKKKIYIFAPSKEMAEKIAKELNLKDVKVYEKGTSIEELLKKHPDVEKVIVLPAEELKSAGG [r19_270_TrROS_Hall] | 2.87 ± 0.056 |
| SAGGVIPPSATITTLKTYPDGTVLTNVTFPDGTPMTVTLTRETLPDGSVVLKFTNPATGEELATFPVSSAGG [r13_527_JUSTAS] | 2.15 ± 0.062 |
| SAGGSAGGSNDPPEIKIDYEYNPNNGMYTANITIPNGRKLKITFPGDDAEDAEEQAKNLIEKLSAGGSAGGS [r12_339_TrROS] | 1.57 ± 0.091 |

Assay: folding stability dG unfold (combined trypsin and chymotrypsin); higher = more stable
Procedure, shortened: as §1

| Sequence | folding stability dG unfold [kcal/mol] |
| --- | --- |
| SAGGSVKIKIKVPKDNPEAKKLAEKLRKLPGVKEVKVKKVKEINGYLVLEIEVEVSPEVKEKLKELLSAGGS [r16_394_TrROS_Hall] | 2.97 ± 0.34 |
| SAGGITVEVEYERTEGGYYRVTVTLRDPDGNPIEIEYPMPPGDPGMTQDEMKDKAVEWALKIAQELNSAGGS [r8_123_TrROS] | 3.96 ± 0.088 |
| SAGGSAGGSAGGDITIDTEQMPNGWHTVKVRLPNGKPIAPVPMPPGMTPEEAVKRALDRLSAGGSAGGSAGG [r7_444_TrROS] | 0.0336 ± 0.12 |
| SAGGSAGGSAGKTYEIVEYNPETKKFLIRFEDGSTKEVEVKPGDKIEVPPGAKVEIVPLDSAGGSAGGSAGG [r17_295_TrROS_Hall] | 1.88 ± 0.14 |
| SAGGLVLPPDAVVTGTLTAPRPDGSTVTVRARVRFPPRPPPPPLVLVRLPDGSVRPVRSLEEARRLASAGGS [r16_580_TrMRF] | 3.49 ± 0.1 |
| SAGPVIATADVEVYEDGTAKITLTLRTLTENGELLPDVTLPITLPLPPGSKATITVNLDDGEITITVGDSAG [r5_179_TrMRF] | 3.96 ± 0.11 |
| SAGGSAGGSAPVIRIEVDGKVYEIPADVLKEKGLTIEELAEELEKKHNIKVEKVEDGTIRVTSAGGSAGGSA [r18_7_TrROS_Hall] | 2.1 ± 0.078 |
| SAGGSALLEALKKLAEELGLEVELEEVRVETETRTETRTLPDGRTETRTETEVRVEVKVTVRPKPASAGGSA [r15_561_TrROS_Hall] | 2.71 ± 0.082 |
| SAGGSAGGSAGMVEVYSEPDGTVIVKETVPGKVVITVLEKVPGGPGLNPVTTTVVPPGLLSAGGSAGGSAGG [r11_844_JUSTAS] | 1.11 ± 0.043 |
| SAGGMPLRFRIEVYKTETYYDPSTGKEVTKVEPLPELEIEAPPNTPLEAILAALDLPEDYYISRIGVESAGG [r13_716_TrMRF] | 2.43 ± 0.049 |
| SAGYIRIEKDNDYYKIEFLFPPNDPSLIENLVEAIRQKGWKVKDVEVEVEPNKDGMYRVEIDFKIKPPDSAG [r5_739_TrROS] | 2.88 ± 0.17 |
| SVRIHGPDGQWFPVDDIEFDPNNNKFTFKFPGGKHKFPLPPGWQIEIDKDNAWIRVRPMPPPPPEDKEAKSA [r9_551_TrROS] | 2.68 ± 0.34 |
| SAGGSAGGSKKKPPPVKVKIRVVVDGKVYEIEIEVDPNMTVEEIKEALRKLLGPDIKEVEIEPSAGGSAGGS [r12_300_TrROS_Hall] | 3.07 ± 0.64 |
| SAGGSGATYLSKYEIPLPNGKKLTIIEAYKNPETDLILYIAKTDDGTEYPFVYPSSWSPEDAIKALISSAGG [r13_470_TrMRF] | 2.69 ± 0.086 |
| SAGGSAGGSITTVTGVYKTPDGNPTAATFEVANKPDGTVTYTVTVPGTGKTFSTDSLDLVTVDGSAGGSAGG [r6_255_JUSTAS] | 0.485 ± 0.042 |
| SAGGSAGGGPRAVPVGELELVLGDLVVRVRFFRNPESDSVSVRVEVRPLPPISAEELARLGEEGSAGGSAGG [r6_177_TrMRF] | 2.91 ± 0.15 |
| SAGGSAGGSAGFFIRIEPPNGEKVHFPMPPNQLPELAEEFPGLKIDDIDEGNGWIWVEVPSAGGSAGGSAGG [r17_22_TrROS] | -0.264 ± 0.35 |
| SAGGSAPFKIAEIESVEYDPNEGRPTIRITIEHDGRPVEIWVPPGGIQIFNMGDGEPIKEIPLDEISAGGSA [r15_85_TrROS] | 0.0268 ± 0.26 |
| SAGGSANDKDGQKKKQIKPIKIELPIPPGMEIEEINPGNGMIMIRWPENGWTWMFSLDDGKIFVMDSAGGSA [r15_452_TrROS] | 1.86 ± 0.22 |
| SAGGSAGGSAGTSIKEAKIKLPSNGKTYKAIVTTHPNGKKYVYIPETGKVYELNNLIIEPSAGGSAGGSAGG [r11_301_TrMRF] | 2.02 ± 0.059 |
| SAGGSMTLTIEVDGKTVEITEVREKEDGEKVVRIRVTTPDGEEKEIEMTLDELAEILGLSKEELEPSAGGSA [r2_262_TrROS_Hall] | 3.27 ± 0.18 |

| Sequence | folding stability dG unfold [kcal/mol] |
| --- | --- |
| SAGPKIELEVDPENPNVARAKVIDPANGEEIDEVEVPVTTLPDGTVLVPAKIKYKGSGKTLELPFTVEGSAG [r5_610_TrMRF] | -0.126 ± 0.28 |
| SASSETFEIEVKVKLFFRDPEKGKLVEREFDAIVKVTVNPETGEVKVEVYFKPLGKPVTITLPPGASIESAG [r14_587_TrMRF] | 4.26 ± 0.21 |
| SAGGMQKAIDIAKELGWKILDVDPEKKVVKVKPPDSDVEVTITVDDESTVTITTKNPGSDVVETIPESAGGS [r16_197_JUSTAS] | 1.4 ± 0.16 |
| SAGGSAGGSAGMKYKATIPLPDGTTLTYESEDPEKAIEEITKETGVPKSKITITPIPELESAGGSAGGSAGG [r17_169_JUSTAS] | 0.598 ± 0.097 |
| SSPGKITTYEVTLTLPGPRPMTSTVDPSGVMTATVPDGTKITATIVPGPGTLTITTTFPDGTTSTSTISASA [r9_99_JUSTAS] | 1.26 ± 0.074 |
| SAGGSMVLTLEEESEEGVLRVTELHFYPGEVTVTTRTFEIAPDGSVRSATESTTVIPVPPSALAEASAGGSA [r2_474_JUSTAS] | 1.96 ± 0.1 |
| SAGGSAGGSAGGSGAEELAKKLQEKLEELGLEAEITVEYDEETNELTITITVDGKEYEFSAGGSAGGSAGGS [r4_312_TrROS_Hall] | 1.94 ± 0.06 |
| SMPNTIEEIRFTFTLPDDTPVESEVDPDGKVTGTYPDGLKIEATLEPDSGKLTVKVTFPDGLPAEATIDLSA [r9_99_TrMRF] | 1.7 ± 0.089 |
| SAGGSAGGMKIVVEEVDEEKGYVRIRIEDPETKEEKEIVVKVKTPEEAEALAKKLAEAGYEVETSAGGSAGG [r6_796_TrROS_Hall] | 1.61 ± 0.087 |
| SAGGSAGGSAGKPEVKVEAEVEPYPETDLVVVNVRVYVDGVPVEIPFVVPPSVAEAFLKASAGGSAGGSAGG [r11_700_TrMRF] | 1.16 ± 0.048 |
| SAGGSASMIVKEVKDKVDPAGSVPPDAVIRLETKVDPATGVWTIKVYTEEGKEIGESTVFVKPGILSAGGSA [r15_134_JUSTAS] | 0.602 ± 0.069 |
| SEAEAVTFPVPNPEDGELVADLAVARNPETGEWTVRLEHEDGKTVEVTFPEDEELPVDGLPPGLRATFTGSA [r9_1150_TrMRF] | -0.401 ± 0.13 |
| SAGGSAGGSAAMLNRKPTVYPLPDDTVRLEETVPSPGTKIYKTIKLPPGGLIEEGDVSYPPSAGGSAGGSAG [r3_165_JUSTAS] | -0.521 ± 0.19 |
| SAGGSASPVFVATRISLPGGNASVDTSRYDPSSGTLTITVTLPDGTTTTITLTGPVSEYPADRLLLSAGGSA [r15_596_JUSTAS] | 1.13 ± 0.061 |
| SAGGMTVETTTVTLAAGTTYTVTTPSDSTVEVVDTETGVVRRFDVPASTDFSVTLPADRTYDITVVRRSAGG [r19_78_JUSTAS] | 1.15 ± 0.032 |
| SAGGSMLEKEEGDTLVKTVLQPVPEDLSREVLVTTTTKLLPNGSEVTVTVRSPFTGEPLSSSVVLSSAGGSA [r2_412_JUSTAS] | 0.602 ± 0.066 |
| SAGGSAGGSAGGSKYVVIRVKKSVDELKDALKKAGFKVKIVSVYYDKENKEIYVVVKIESAGGSAGGSAGGS [r4_315_TrROS_Hall] | 4.16 ± 0.17 |
| EVETYPDGTVVTTLPPEVTADIPADEPVNLRTLIFDPDGYLYLSTATRTPDGTVTYTVSITPIPVGPELLLS [r1_394_JUSTAS] | 1.54 ± 0.077 |
| SAGMVIVIDKKKKKIYIFAPSKEMAEKIAKELNLKDVKVYEKGTSIEELLKKHPDVEKVIVLPAEELKSAGG [r19_270_TrROS_Hall] | 2.65 ± 0.27 |
| SAGGVIPPSATITTLKTYPDGTVLTNVTFPDGTPMTVTLTRETLPDGSVVLKFTNPATGEELATFPVSSAGG [r13_527_JUSTAS] | 2.15 ± 0.088 |
| SAGGSAGGSNDPPEIKIDYEYNPNNGMYTANITIPNGRKLKITFPGDDAEDAEEQAKNLIEKLSAGGSAGGS [r12_339_TrROS] | 1.28 ± 0.38 |
